In IntAct's records for PubMed 21816275:

B1: Septum site-determining protein MinD (Escherichia coli (strain K12)), P0AEZ3 (parent)
chain: MARIIVVTSGKGGVGKTTSSAAIATGLAQKGKKTVVIDFDIGLRNLDLIMGCERRVVYDFVNVIQGDATLNQALIKDKRTENLYILPASQTRDKDALTREGVAKVLDDLKAMDFEFIVCDSPAGIETGALMALYFADEAIITTNPEVSSVRDSDRILGILASKSRRAENGEEPIKEHLLLTRYNPGRVSRGDMLSMEDVLEILRIKLVGVIPEDQSVLRASNQGEPVILDINADAGKAYADTVERLLGEERPFRFIEEEKKGFLKRLFGG

Variants of: B1
Settings: with mine_ecoli minE

| effect of a mutation on the interaction | Variant |
| --- | --- |
| disrupting interaction | MARIIVVTSGKGGVGKTTSSAAIATGLAQKGKKTVVIDFDIGLRNLDLIMGCERRVVYDFVNVIQGDATLNQALIKDKRTENLYILPASQTRDKDALTREGVAKVLDDLKAMDFEFIVCDSPAGIETGALMALYFADEAIITTNPEVSSVRDSDRILGILASKSRRAENGEEPIKEHLLLTRYNPGRVSRGDMLSMERVLEILRIKLVGVIPEDQSVLRASNQGEPVILDINADAGKAYADTVERLLGEERPFRFIEEEKKGFLKRLFGG [D198R] |
| disrupting interaction | MARIIVVTSGKGGVGKTTSSAAIATGLAQKGKKTVVIDFDIGLRNLDLIMGCERRVVYDFVNVIQGDATLNQALIKDKRTENLYILPASQTRDKDALTREGVAKVLDDLKAMDFEFIVCDSPAGIETGALMALYFADEAIITTNPEVSSVRDSDRILGILASKSRRAENGEEPIKEHLLLTRYNPGRVSRGDLLSMEDVLEILRIKLVGVIPEDQSVLRASNQGEPVILDINADAGKAYADTVERLLGEERPFRFIEEEKKGFLKRLFGG [M193L] |
| disrupting interaction | MARIIVVTSGKGGVGKTTSSAAIATGLAQKGKKTVVIDFDIGLRNLDLIMGCERRVVYDFVNVIQGDATLNQALIKDKRTENLYILPASQTRDKDALTREGVAKVLDDLKAMDFEFIVCDSPAGIETGALMALYFADEAIITTNPEVSSVRDSDRILGILASKSRRAENGEEPIKEHLLLTRYNPGRVSRGDMLSMEDVLEILRIKLVGVIPEDQSVLRASNQCEPVILDINADAGKAYADTVERLLGEERPFRFIEEEKKGFLKRLFGG [G224C] |
| disrupting interaction | MARIIVVTSGKGGVGKTTSSAAIATGLAQKGKKTVVIDFDIGLRNLDLIMGCERRVVYDFVNVIQGDATLNQALIKDKRTENLYILPASQTRDKDALTREGVAKVLDDLKAMDFEFIVCDSPAGIETGALMALYFADEAIITTNPEVSSVRDSDRILGILASKSRRAENGEEPIKEHLLLTRYNPGRVSRGYMLSMEDVLEILRIKLVGVIPEDQSVLRASNQGEPVILDINADAGKAYADTVERLLGEERPFRFIEEEKKGFLKRLFGG [D192Y] |
| disrupting interaction | MARIIVVTSGKGGVGKTTSSAAIATGLAQKGKKTVVIDFDIGLRNLDLIMGCERRVVYDFVNVIQGDATLNQALIKDKRTENLYILPASQTRDKDALTREGVAKVLDDLKAMDFEFIVCDSPAGIETGALMALYFADEAIITTNPEVSSVRDSDRILGILASKSRRAENGEEPIKEHLLLTRYNPGRVSRGDMLSMEDVLEILRIKLVGVIPEDQSVLRASAQGEPVILDINADAGKAYADTVERLLGEERPFRFIEEEKKGFLKRLFGG [N222A] |
